Target: T1, His6-RpoA (purified) (UniProt P0A7Z7 1-329)
T1 construct: also called RNA polymerase alpha subunit
Experiment: pull-down
Conditions: both partners purified

T1 sequence (P0A7Z7 whole entry): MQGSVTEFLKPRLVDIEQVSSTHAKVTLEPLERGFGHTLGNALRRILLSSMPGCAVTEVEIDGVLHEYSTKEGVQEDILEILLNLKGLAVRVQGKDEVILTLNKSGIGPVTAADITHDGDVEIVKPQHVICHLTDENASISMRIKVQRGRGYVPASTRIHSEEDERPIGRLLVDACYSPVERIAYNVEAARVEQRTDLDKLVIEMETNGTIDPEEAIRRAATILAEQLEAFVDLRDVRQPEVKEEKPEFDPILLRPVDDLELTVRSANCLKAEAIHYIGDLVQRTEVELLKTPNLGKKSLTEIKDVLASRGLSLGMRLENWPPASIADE

B1: MBP-InvF (InvF fused to the maltose-binding protein) (natural protein)
chain: MSFSESRHNENCLIQEGALLFCEQAVVAPVSGDLVFRPLKIEVLSKLLAFIDGAGLVDTTYAESDKWVLLSPEFRAIWQDRKRCEYWFLQQIITPSPAFNKVLALLRKSESYWLVGYLLAQSTSGNTMRMLGEDYGVSYTHFRRLCSRALGGKAKSELRNWRMAQSLLNSVEGHENITQLAVNHGYSSPSHFSSEIKELIGVSPRKLSNIIQLADK
notes: also called Transcriptional regulator InvF
B1: binds.
